Measurements published in doi:10.64898/2025.12.17.694860 (2025).

Molecular target: T1, Trypanosoma brucei enolase (Trypanosoma brucei)
T1 chain: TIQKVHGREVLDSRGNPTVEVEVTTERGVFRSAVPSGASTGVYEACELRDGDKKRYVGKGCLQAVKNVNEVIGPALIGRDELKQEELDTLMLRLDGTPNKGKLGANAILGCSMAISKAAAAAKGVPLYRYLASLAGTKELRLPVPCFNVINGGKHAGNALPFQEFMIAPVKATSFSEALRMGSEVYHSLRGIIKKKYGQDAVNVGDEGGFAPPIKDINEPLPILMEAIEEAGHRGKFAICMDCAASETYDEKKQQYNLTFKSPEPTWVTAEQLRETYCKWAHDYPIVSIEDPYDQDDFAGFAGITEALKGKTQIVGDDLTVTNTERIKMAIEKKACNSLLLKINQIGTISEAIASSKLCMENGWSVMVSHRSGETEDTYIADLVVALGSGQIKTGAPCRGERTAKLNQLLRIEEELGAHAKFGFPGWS
Experiment: ITC

B1: sdAbR1-10 (VHH)
VHH: QVQLQESGGGLVQPGGSLRLSCAAPGSIFSIFSGNIMGWYRQAPGKQRDFVASISSGGATNYADSVKGRFTISRDNAKNTVYLQMNNLKPEDTAVYYCNTVGGVHTNSWGQGTQVTVSS
B1 showed a Kd of 18.6 nM.
